Experimental data from the domain aggregation screens of Martell et al. (2025).

Assay: soluble fraction after stress (log2 fold change); higher = more stays soluble; pooled small domains, quantitative proteomics
Settings: stress: 75 degC
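Further: 20 min heating vs room temperature control held 20 min.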

Row | Sequence | soluble fraction (log2)
1 | HMENVVESIYNKMVESITNGQWAAGSKIPTENELAKTYQVSRSSVRQAISRLKALGLLESRQGSGTVIKK | -0.0436
2 | HMENWMPNLVNQDKRLAINTLRELGFTEEAGNLVIREETSEDVTKDYVISTDPVAETDLADVEKVTLVVSS | 0.116
3 | HMENYIEQLTAKNSEYIHVVTRELVKIGKSDEEIKAILSDILPQIVAAQDQRVLAKDILGTPSEFTAKYAP | 0.462
4 | HMEPDDLTVIKGIGPVAAKDLNEQGIITFAQLAKLSDKDVAKIDEHMPFSADQIKDWREQAKELAK | 0.739
5 | HMEPDEIVLDHRKRIENSDAIVLIAPIWNFRMPAILEGWIDKVLAPPWAFKFKKLFGNYGYPVGNLKG | 0.0917
6 | HMEPDTVVVPNFVGKVYASEIEGNEAYSDFTFVIKEGNDPEQDIGVVLKQTPNEGLEVKKGKEITLTINQ | 0.031
7 | HMEPEAKIDFILKAAQKRLGLYGYEKTTMQEIAADINMSKAALYYYFPDKESLFKAVVENEQEEYFH | -1.97
8 | HMEPEDVIAMERYLASGAIKGIGVTLAGRIIKKFQKETFHIIEEEPERLSEVKGISEKLAREIYQQFTQK | -1.11
9 | HMEPERRHLEVPAEAEGERIDRFLASQLENLSRSRIQALIKAGYVRNRRGTIEDPGLRVKPGDAFVVDLPP | 0.354
10 | HMEPEVEITYFKPDERKAGGAYVTVTGAVIKVDDFERLITMQDGTKIPMDDILSIDGELFLS | -0.502
11 | HMEPGEVQVDGLRFIAQPQERNDFEVALEQFRAGNFAAARKSFAAFINTYKQSGYLPSARFW | 0.0135
12 | HMEPLKLGDATGDGKINLQDVLEMQKHMAGILVLKGKFFTAADVNGNGKIELVDVLSVQKYLAGVTAEV | 0.11
13 | HMEPLVSKVFQVSYQKTADLVALIKSEDSKLLSARGTLISDERTSQIFVQDTPTRLERISMIVNGL | -0.889
14 | HMEPMNMYSSIKKVIGVVSGKGGVGKSLVTASLARMMRAKGYHVGIMDADITGPSIPKMYGLHEMA | 0.395
15 | HMEPVDYEALRKELMQKVMGLFTQSRDVGIQILSSFGAKKLSDVPDDKLVAFAASVDKALAG | -0.193
16 | HMEPVQFIQFKIPDGHPWSGQLLREVRLPPGTLVVLLKHDGKNIIPNGETPLLAGDSVILSAASPT | -0.567
17 | HMEQAAQPQTGFDPRRLKAGDAVHLLALDQRGVLLEDPKPGAESAPVSVGVAGVRVVVPLREMEALPAG | 0.0201
18 | HMEQEVLDLLFDAIRSLPEKYRRLFDMSFEQGLKNAEIAALLHVSESAVKKQKASMIQQLRDDLLRKTGKD | -0.745
19 | HMEQFDFTILRELRKRAGLSIGEVSAESGVSAAVISKLERNRTRAELDTLYRLARVFGITAAELLNLAEA | -2.19
20 | HMEQIETIFLSAAPYARTHIIHLLETSELFRDKYLTIVETSNGLLIYTEDKNRLLGILNSLT | -2.51
21 | HMEQIFTELIMDGRVLGENLHRMGVDETWLLRQLRQQGYHSAREVFLAVADANKQVAVYPVS | -0.381
22 | HMEQINVTIQTEKGRIDKVLSEHLPNHSRSQIQQWLKEKHVTVNGETVRANYKVTAGDEIVVTIPEPEV | 0.546
23 | HMEQISDEDTLRKMVNEVLDNNQTQLEQYKSGKTNLIGFFVGQTLKKSAGKANPSIVNKLVNEEIYI | 0.141
24 | HMEQISIETRIEQLLARLSETEASGFEELFADTSSRADLITTFLALLEMIRLKLVRVFQDGSFGPIRIYKR | -0.572
25 | HMEQKISVPALVGRDIEEILADTEVTGNFTIKEADKRVASNRPVGEVLEQDPGTGESAVKGTIITVTVSAG | -0.0542
26 | HMEQNTKAYEQVRTLTDLLNQYRHEYYNLSAPSVSDQEYDRLFDALAALEKQTGIVMSNSPTQTVG | 0.0212
27 | HMEQPAPSTTVDILGGGRAALVTANRELGLALADDEIDYLTDSFTQLGRNPVDVELMMFAQA | -0.00398
28 | HMEQSLNTYSIRTVKESLFLAETKNLNKIEKLVEGIEGRLTLSEALVLFSDKLNAMSVLSHVNANT | -0.154

Row | Sequence | soluble fraction (log2)
29 | HMEQTIKKYVNVATLNFRSGPSTSYSIISTLSKGTKVEVISTTNNWSKIIYDGKIGYVSSEYLSKSI | -3.07
30 | HMEQVPEAVGRRVRQARSDRGWTLDQLAERSEVSRRMIVNVEAGTSNASIATLLRLATALNVGLAELVA | -1.61
31 | HMEQVVFNGTGRRKSSIARVRIMSGKGNITVNGKALDEYFGEETLKVIVRQPLTVTDTLDKYDVIATVK | 0.0911
32 | HMEQYYVFFAGGMTIGTKEWYESILPENIATSYDDILEGKMMPASLEQIEFYNSHKDYDLYHLFYML | -4.25
33 | HMERAFRILELFDLKQDELPITEIAERTGLPISTAHRLLSTLETLGYIAQNPDNGRYRLGLQTFVLGSR | -1.86
34 | HMERAPAYPDGLTQREVEVLRLIASGKTDREIAEELFIGVRTVSTHVGNILNKTNSANRTEAASYANQQGL | -0.0632
35 | HMEREQNIAQGREVVQRELKRLGLTDVFTVEDIGRALKFDDIDEFLSKVGFGDIQTAKITGAIALMQQALR | -0.0649
36 | HMEREQNIEHGRAIVERELKRLGLSDVYTIADIATALRHDDVDQFLAKIGFGDIQSTQIGGAIAALQQR | 0.0025
37 | HMEREQPFAVTEAYRGMRLDRFLQAMLPRMSRAAIQDAIDNRVRLGSGRAAKASLRPAIGDTVFFGQRI | -1.17
38 | HMERFRQVNAGMTRDDIYQLLGKPTEKTPFPLKNEEVWSWRHQADGQTVALFNIHLDPDGRVTTTSQSMDL | 0.739
39 | HMERFVVISKDKYANLREEASTNSKVLAKVDNSYLIYNTNTYNENKDWYSVQIERDGNYYQVGYIHKSQL | -1.61
40 | HMERLKRVTLSLNQSNYSVTEIARRLQAITGIKDITVVEDEQAVYLKVDPATFDLTLAQQAV | -0.474
41 | HMERLLVSKINGMITEAKVSVEDVVKVVASRGHYPEVKSIDEYPDDFLSRWVVPNFKKIVEMINANKEA | -0.979
42 | HMERMTSTEILTRDFLTTNSKIVKKSTIEELSEIIHVSPATIIRTVKKMGYSGFSEYKNELINQ | -1.73
43 | HMERPEVVAYRLAYASAESLRPALGLVASPSDLEIDERTNTLIVRAVPSVQERVAELVASLDI | -0.492
44 | HMERPKSLRELALEHLRNSIIDGSLKMGQVLSERKISEELGVSKSPVREALAQLRDEGLVSIEPQKGARV | 0.14
45 | HMERPLFVIEDYRRFAGNEVEISLKKGGKKIRGVIAGTPSDAEVTVRTQGGETTVPLGDVKRAHLVYV | -0.00192
46 | HMERRDEINSVVSRYVSAITEGKYDLAEVDETGKLRVQTEGREVLPEALSRGTLEQFYFAFRMAVGSI | 0.04
47 | HMERTQSIEAAREQLGEVTKDNVFETETLGALAILKENEPGEYAKIKADLKGKINMNDLERAVKKAAADQR | 1.02
48 | HMERYFVLVIYDIVDNKKRLKLSKYLLGYGIRVQKSAFEMMITKEKYNKLIKELPTYIEEGEDSIRLY | 0.0566
49 | HMERYLLRDNIPNALHGERLDRVIAIMTGLSRSAVSALIKSNQVLRNGQIAQSISEKVVEGDELEVHLEP | -0.832
50 | HMESDAIAAAIAALPARYREVLLLRYDNGFSYSEISKALDMTEAAVRKTVQRAKEALQRTLQIQEEDT | -0.767
51 | HMESDRVAHVVAPGETLFSISGKYGIGMGELVAANPVLESRPPRTGDTLLIRLPENPLPAETDAETLS | 0.643
52 | HMESIAEIDRMNAKIFMDEFQDSLSIMQKTTNPETFFSRYDLAMERLDNMVELQQKGIKFTSDLSSLKAQ | 0.0865
53 | HMESIEGMYKISLLRKQGNAYVIFEDENKEAVEHIFPEKPTALELGTKVIEMFEYKERYDGLI | -0.343
54 | HMESILDDFPGLGEKRKKALLEHFGSISKIKAATVGQLREVDGIGFETAAALREFLDANFPA | 0.188
55 | HMESIPDELLEAFKQDPAFKQAFYALTAGRQRGYIIHFSQPKQSQTRIGRIEKYKEQIFNGIGLN | -1.39
